Biological target: Fpr C151Stop (Fowlpox virus) (UniProt A0A385H9X4)
Test: fluorescence polarization
Conditions: FP: 25 mM Tris-HCl pH 7.4, 100 mM NaCl, 5 mM EDTA, 1% glycerol, 10 nM DNA, 37 C 20 min, protein as dimer; NMR: 25 mM L-Arg, 25 mM L-Glu, 303 K

“CGGAGGCCTAGCGTCCGGAATTCTCGTTTCGAGAATTCCGGATTAGGGATCCGCG / CGCGGATCCCTAAGCTCCATCGATCGTTTCGATCGATGGAGCCGCTAGGCCTCCG [F13/13HJ (FHJ13/13)]” showed a Kd of 168 nM.

— publication PMC6962361
